Measurements published in patent publication US20160376333A1 (University of Washington, published 2016).
Where a chain is given by its changes, count along the chain named. Names may count otherwise.

Experiments:
[1] = molecular target: T1, human Bcl-w a.a. 1-182 with C-terminal avi-6his tag (human, UniProt Q92843 1-182); assay: ratio of the KD of the next tightest BCL2 protein to the KD of the target, BLI
T1 construct: range 1-182; also called BCL2L2
T1 sequence: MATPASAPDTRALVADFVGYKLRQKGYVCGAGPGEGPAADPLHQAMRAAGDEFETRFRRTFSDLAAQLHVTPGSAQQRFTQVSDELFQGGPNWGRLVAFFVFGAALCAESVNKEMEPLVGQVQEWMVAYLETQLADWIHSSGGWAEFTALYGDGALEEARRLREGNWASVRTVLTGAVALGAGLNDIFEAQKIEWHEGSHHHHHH

[2] = molecular target: T2, human Bcl-2 a.a. 1-207 with C-terminal avi-6his tag (human, UniProt P10415 2-207); assay: BLI, biotinylated target on streptavidin sensor, range of analyte concentrations
[3] = molecular target: T1, human Bcl-w a.a. 1-182 with C-terminal …; assay: as above
[4] = molecular target: T3, human Mcl-1 a.a. 172-327 with C-terminal avi-6his tag (human); assay: as above
T3 chain: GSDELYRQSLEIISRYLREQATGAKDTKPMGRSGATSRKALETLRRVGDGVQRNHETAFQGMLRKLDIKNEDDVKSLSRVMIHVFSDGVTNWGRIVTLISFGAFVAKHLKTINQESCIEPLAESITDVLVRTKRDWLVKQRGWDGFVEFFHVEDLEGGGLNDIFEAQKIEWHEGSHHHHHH

[5] = molecular target: T4, human Bfl-1 a.a. 1-153 (C4S) with C-terminal avi-6his tag (human); assay: as above
T4 construct: also called A1/Bfl-1
T4 chain: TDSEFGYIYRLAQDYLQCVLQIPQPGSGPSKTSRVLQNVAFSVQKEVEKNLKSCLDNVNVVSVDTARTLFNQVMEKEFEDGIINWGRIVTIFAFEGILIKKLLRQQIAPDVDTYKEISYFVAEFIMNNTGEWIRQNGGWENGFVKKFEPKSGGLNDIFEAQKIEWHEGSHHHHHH

[6] = molecular target: T5, human Bcl-XL a.a. 1-205 with C-terminal avi-6his tag (human, UniProt Q07817 2-206); assay: as above
T5 construct: also called BCL2L1

[7] = molecular target: T6, human Bcl-B a.a. 11-175 with C-terminal avi-6his tag (human); assay: as above
T6 construct: also called BCL2L10
T6 chain: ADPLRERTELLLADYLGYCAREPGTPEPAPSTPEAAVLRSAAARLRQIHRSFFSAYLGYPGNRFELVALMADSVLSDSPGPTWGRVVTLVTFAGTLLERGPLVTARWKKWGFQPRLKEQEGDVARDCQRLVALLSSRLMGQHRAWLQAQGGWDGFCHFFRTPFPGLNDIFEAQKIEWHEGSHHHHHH

[8] = molecular target: T2, human Bcl-2 a.a. 1-207 with C-terminal …; assay: ratio of the KD of the next tightest BCL2 protein to the KD of the target, BLI
[9] = molecular target: T1, human Bcl-w a.a. 1-182 with C-terminal …; assay: initial BLI screening (column 'Binds target?')
[10] = molecular target: T5, human Bcl-XL a.a. 1-205 with C-terminal …; assay: ratio of the KD of the next tightest BCL2 protein to the KD of the target, BLI
[11] = molecular target: T2, human Bcl-2 a.a. 1-207 with C-terminal …; assay: BLI at a single analyte concentration (50 nM, 600 s association, then buffer); biotinylated BCL2 protein on a streptavidin sensor
[12] = molecular target: T1, human Bcl-w a.a. 1-182 with C-terminal …; assay: as above
[13] = molecular target: T3, human Mcl-1 a.a. 172-327 with …; assay: as above
[14] = molecular target: T4, human Bfl-1 a.a. 1-153 (C4S) with …; assay: as above
[15] = molecular target: T5, human Bcl-XL a.a. 1-205 with C-terminal …; assay: as above
[16] = molecular target: T6, human Bcl-B a.a. 11-175 with C-terminal …; assay: as above
[17] = molecular target: T2, human Bcl-2 a.a. 1-207 with C-terminal …; assay: yeast surface display titration; apparent binding constant (mean ± SE, n = 3-6)
[18] = molecular target: T1, human Bcl-w a.a. 1-182 with C-terminal …; assay: as above
[19] = molecular target: T3, human Mcl-1 a.a. 172-327 with …; assay: as above
[20] = molecular target: T4, human Bfl-1 a.a. 1-153 (C4S) with …; assay: as above
[21] = molecular target: T5, human Bcl-XL a.a. 1-205 with C-terminal …; assay: as above
[22] = molecular target: T7, Epstein-Barr virus BHRF1 a.a. 1-161 with C-terminal avi-6his tag (Epstein-Barr virus); assay: effect of the mutation on specificity (KD(BHRF1)/KD(Mcl-1) ratio): change in binding energy for BHRF1 minus that for Mcl-1, relative to BbpD04; assay not named on the sheet
T7 construct: also called EBV BHRF1; BHRF1-biotin
T7 chain: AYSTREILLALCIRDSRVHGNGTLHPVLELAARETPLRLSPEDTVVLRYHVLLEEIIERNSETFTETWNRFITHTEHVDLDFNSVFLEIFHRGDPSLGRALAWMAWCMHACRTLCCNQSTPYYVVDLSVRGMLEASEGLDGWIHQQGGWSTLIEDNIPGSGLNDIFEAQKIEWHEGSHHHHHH

[23] = molecular target: T7, Epstein-Barr virus BHRF1 a.a. 1-161 …; assay: yeast surface display titration (apparent KD)
[24] = molecular target: T2, human Bcl-2 a.a. 1-207 with C-terminal …; assay: yeast surface display titration (apparent KD)
[25] = molecular target: T1, human Bcl-w a.a. 1-182 with C-terminal …; assay: yeast surface display titration (apparent KD)
[26] = molecular target: T3, human Mcl-1 a.a. 172-327 with …; assay: yeast surface display titration (apparent KD)
[27] = molecular target: T4, human Bfl-1 a.a. 1-153 (C4S) with …; assay: yeast surface display titration (apparent KD)
[28] = molecular target: T5, human Bcl-XL a.a. 1-205 with C-terminal …; assay: yeast surface display titration (apparent KD)

B1: W-CDP03 (designed binder)
chain: DPKKVFDEAKDRAENNVRRLKQKLEELYKEARKKDLTQEEREKLKEKYKTAMAAAALAAIGDAFNALLKARKLHKNGQVNEQQLEELARRLQELAKEAFQKAKDYANEFEYKLEY
[1]
  Specificity: 0.9 fold
[2]
  Kd: 18.8 nM
[3]
  apparent Kd (pooled screen): 8 nM
[4]
  Kd: 55.3 nM
[5]
  Kd: 400 nM
[6]
  Kd: 7.43 nM
[7]
  Kd: 400 nM

B2: WINDI (designed binder)
chain: B1 chain with A9L, E46T, A53Q, A54L, I60E, A63I, F64M, Q92M, E110K
notes: also called W-ECM01; αBCLW
[1]
  Specificity: 1590 fold
[2]
  Kd: 5700 nM
[3]
  Kd: 1.01 nM
[6]
  Kd: 1610 nM

B3: 2-INDI (designed binder)
chain: ADPKKVLDKAKDEAENRVRELKQRLEELYKEARKLDLTQEMRQELVDKARAASLQANGDIFYAILRALAEAEKLKKAGLVNSQQLDELKRRLEELAEEARRKAEKLRDEFRLKLEY
notes: also called αBCL2
[8]
  Specificity: 2210 fold
[2]
  Kd: 0.839 nM
[3]
  Kd: 1850 nM
[6]
  Kd: 3500 nM

B4: 2-CDP06 (designed binder)
chain: B3 chain with R24K, N57S, R107G
[8]
  Specificity: 190 fold
[2]
  apparent Kd (pooled screen): 8.9 nM
[3]
  Kd: 1670 nM
[6]
  Kd: 12000 nM

B5: W-CDP01 (designed binder)
chain: DPKKVFDKAKDKAENQVRYLKQRLEELYKEARKKDLTQEQRRKLKEKYLAAKLAAILAAIGDAFNALAEARELHKQGKVNKQQLDELAKRLDRLAEEAIQKAEDYAREFAYKLEY
[9]
  binding result: binds

B6: XINDI (designed binder)
chain: ADPKKVLDKAKDRAENVVRKLKKELEELYKEARKLDLTQEMRDRIRRTAIAARFQAHGDIFHAIKHAKEEARKLKKAGLVNSQQLDELKRRLRELDEEAEQRAEKLGKEFRLKLEY
notes: also called X-ECM04; αBCLXL
[10]
  Specificity: 660 fold
[2]
  Kd: 3700 nM
[3]
  Kd: 40000 nM
[6]
  Kd: 5.59 nM

B7: X-CDP07 (designed binder)
chain: ADPKKVLDKAKDRAENVVRKLKKELEELYKEARKLDLTQEMRDRIRLAAIAARIAAFGDIFHAIMEALEEARKLKKAGLVNSQQLDELKRRLEELDEEAAQRAEKLGKEFELKLEY
[10]
  Specificity: 6.46 fold
[2]
  Kd: 3.81 nM
[3]
  Kd: 14.9 nM
[4]
  Kd: 174 nM
[6]
  apparent Kd (pooled screen): 0.59 nM
[7]
  Kd: 107 nM

B8: M-CDP03 (designed binder)
chain: ADPKKVLDKAKDQAENRVRELKQDLERLYKEARKLDLTQEMRRKLQEKAAAAMIRAIGDINNAIYQALQEADKLKKAGLVNSQQLDELKRRLEELQKEASRKAQAYGEEFMLKLEY
[11]
  binding result: no binding (tested: 50 nM)
[12]
  binding result: no binding (tested: 50 nM)
[13]
  binding result: binds
[14]
  binding result: no binding (tested: 50 nM)
[15]
  binding result: no binding (tested: 50 nM)
[16]
  binding result: no binding (tested: 50 nM)

B9: W-CDP02 (designed binder)
chain: DPKKVLDKARDQALKRLEEMRKKLEESYKEARKKDLTQEERRKLEEKYAEAMKRAAEDIYNMIQQALKEAEKEKKAGQVNSQQLDKLREDLNNKLIAAALAAIGDAFNMAANLRT
[9]
  binding result: binds

B10: BbpD04.2 C103V (designed binder)
designed protein: ADWKKVLDKAKDIAENRVRELKQKLEEFYKEAMKLDLTQEMRRKLMLRWIAAMLMAIGDIFNAIRQAKQEADKLKKAGLVNSQQLDELKRRLEELKEEASRKVRDYGREFQLKLEY
[17]
  Kd: 12.6 nM
[18]
  Kd: 9.6 nM
[19]
  Kd: 2.3 nM
[20]
  Kd: 19 nM
[21]
  Kd: 20 nM

B11: E48R (designed binder)
designed protein: B10 designed protein with L21I, E31K, R65E, L79Q, Q84L, V103C, R104H
[22]
  [..] ΔΔG BHRF1 - ΔΔG Mcl-1: -0.762 kcal/mol

B12: BbpD04.2 (designed binder)
chain: B10 designed protein with V103C
[23]
  Kd: 0.6 nM
[24]
  Kd: 33 nM
[25]
  Kd: 40 nM
[26]
  Kd: 26 nM
[27]
  Kd: 70 nM
[28]
  Kd: 31 nM
